B1: SARS‐CoV‐2 NSP3 SUD‐M domain (1356–1493), tag cleaved, for FP (domain or fragment)
chain: LPSIISNEKQEILGTVSWNLREMLAHAEETRKLMPVCVETKAIVSTIQRKYKGIKIQEGVVDYGARFYFYTSKTTVASLINTLNDLNETLVTMPLGYVTHGLNLEEAARYMRSLKVPATVSVSSPDAVTAYNGYLTSS
B2: SARS‐CoV‐2 NSP3 UBl1 domain (819–925), tag cleaved, for FP (domain or fragment)
chain: APTKVTFGDDTVIEVQGYKSVNITFELDERIDKVLNEKCSAYTVELGTEVNEFACVVADAVIKTLQPVSELLTPLGIDLDEWSMATYYLFDESGEFKLASHMYCSFY

Key:
PRDM14 wild-type peptide = test: FP
NCOA2 wild-type peptide = test: FP

| Binder | Kd (PRDM14 wild-type peptide) [µM] | Kd (NCOA2 wild-type peptide) [µM] |
| --- | --- | --- |
| B1 | 74 |  |
| B2 |  | 39 |

From article PMC12102759 (2025)
